Test results taken from US20240280570A1.
Read-outs that look alike come from different tables or passages of the source.

What was measured:
[1] = target: SARS-CoV-1 RBD (Sino Biological 40150-V08B2); Spike Receptor Binding Domain residues R306 - F527 His tagged (SARS-CoV-1) (UniProt P59594); test: OECT sensor, PEDOT:PSS channel, nanobody on gate, target in buffer
[2] = target: SARS-CoV-1 RBD (Sino Biological 40150-V08B2); Spike Receptor Binding Domain residues R306 - F527 His tagged (SARS-CoV-1) (UniProt P59594)
[3] = target: SARS-CoV-2 S1 (Sino Biological 40591-V08B1); Spike Protein S1 subunit residues 1 - 685(R) His tagged (SARS-CoV-2) (UniProt P0DTC2)
[4] = target: SARS-CoV-2 S1 (Sino Biological 40591-V08B1); Spike Protein S1 subunit residues 1 - 685(R) His tagged (SARS-CoV-2) (UniProt P0DTC2); remark: listed apart in the source
[5] = target: SARS-CoV-2 S1 (Sino Biological 40591-V08B1); Spike Protein S1 subunit residues 1 - 685(R) His tagged (SARS-CoV-2) (UniProt P0DTC2); remark: listed apart in the source
[6] = target: SARS-CoV-2 S1 (Sino Biological 40591-V08B1); Spike Protein S1 subunit residues 1 - 685(R) His tagged (SARS-CoV-2) (UniProt P0DTC2); test: method not stated at this place (SPR of viral targets is described in paragraph 219)
[7] = target: SARS-CoV-2 S1 (Sino Biological 40591-V08B1); Spike Protein S1 subunit residues 1 - 685(R) His tagged (SARS-CoV-2) (UniProt P0DTC2); test: OECT sensor, PEDOT:PSS channel, nanobody on gate, target in buffer
MCA-SpyTag peptide [8] = test: QCM-D, SpyTag peptide on HDT-coated gold, without BSA (data not shown)
[9] = target: SARS-CoV-2 S1 (Sino Biological 40591-V08B1); Spike Protein S1 subunit residues 1 - 685(R) His tagged (SARS-CoV-2) (UniProt P0DTC2); remark: listed apart in the source
MCA-SpyTag peptide [10] = target: MCA-SpyTag peptide

Substance | LOD [1] | LOD [2] | normalized response (NR) [3] | LOD [4] | LOD [5] | Kd [6] | LOD [7] | mass density bound (QCM-D) (MCA-SpyTag peptide [8]) | molecules bound per cm2 (QCM-D) (nanobodies per cm^2) (MCA-SpyTag peptide [8]) | LOD [9] | mass density bound (QCM-D) (MCA-SpyTag peptide [10])
VHH72-8 aa-spyCatcher-3C cleavage site-His8 (VHH; other documents disagree on this pair) | 0.0015 pM | 1.6e-05 pM |  |  |  |  |  |  |  |  | 
VHH72-8 aa-spyCatcher-3C cleavage site-His8 |  |  | 30% | 1.2e-09 pM | 0.019 pM | 23 nM | 0.00028 pM | 407 ng cm-2 | 8.4e+12 | 1.8e-08 pM | 430 ng cm-2
